Assays:
[1] = test system: Axin2; test: Axin2 mRNA level in A549 cells by qPCR; assay type: cell-based, human; conditions: 5-0.008 μg/ml, 24 hours, relative to LZ1 control
Protocol: A549 cells are human lung carcinoma cells in which the Axin2 gene is highly expressed, translating endogenous activity of Wnt signaling. Axin2 is a well know Wnt target gene that responds to activation of the pathway by up-regulating its transcription and eventually down-regulating Wnt signaling through a feed-back loop mechanism. This system was used to test the impact of the anti-Fzd Abs on Axin2 mRNA levels by qPCR.
12-well plates were seeded with 30,000 A549 cells per well and grown for 3 days in DMEM+10% FBS. Antibodies were added at varying concentrations (5 1, 0.2, 0.04, 0.008 μg/ml) for 24 hours and total RNA was extracted from the cells. LZ1, a nonbinding antibody, was used as negative control at only the highest concentration.
30,000 A549 cells were seeded into 12-well plates and grown for 3 days in DMEM+10% FBS. Anti-FZD antibody 18R5 or 44R24 were added at varying concentrations (5, 1, 0.2, 0.04, 0.008 ug/ml), and LZ1, a nonbinding antibody, was used as a negative control at only the highest concentration. RNA was made 24 hours post treatment and then treated with Dnase.
Axin2 is known to be a robust target gene in Wnt signaling and its expression level was examined by doing a Taqman relative expression (ΔΔCT) assay using an Applied Biosystems 7900 HT machine. 50 ng of RNA was used per point in triplicate and a GUSB probe was used for endogenous control. […]

[2] = test system: Wnt signaling; test: Inhibition of Wnt3a-induced Super Top Flash reporter activity in STF-293 cells; assay type: cell-based, human; conditions: for IC50: Wnt3a-conditioned medium, 20-0.0003 μg/ml, triplicate
Protocol: STF cells are Human Embryonic Kidney (HEK)-293 cells stably transfected with the Super Top Flash (STF) reporter cassette in which the expression of the Luciferase (Luc) reporter gene is regulated by multiple copies of the TCF binding site upstream of a minimal promoter. A low basal Luc expression can be induced 30-60 fold in response to Wnt3a, providing a large window to assess the inhibitory activity of the anti-Fzd Abs.
To assess the mAbs, STF-293 cells were grown in DMEM-10% FBS. On day 1, 10,000 cells were plated per well in 96-well Optical Bottom White plates (Nunc #165306). The cells were incubated O.N. at 37° C. and 5% CO2. On day 2, the Abs to be tested were diluted to a final concentration of […] using culture medium. Seven 5-fold serial dilutions were performed. The STF-293 cells culture medium was replaced with a mixture containing 50 μA Ab dilution, 25 μA Wnt3a-conditioned medium from Wnt3a stable L-cells and 25 μA DMEM-10% FBS. For each Ab, the final concentrations tested were 20, 4, 0.8, 0.16, 0.03, 0.006, 0.0013, 0.0003 μg/ml. Each Ab concentration was tested in triplicate. A human anti-hapten Ab, LZ1, was used as negative control Ab. A non-Wnt3a-conditioned medium from parental L-cells was used as negative control inducer. The plates were returned to the incubator. Luciferase activity was measured on day 3, using Promega Steady Glo kit (VWR #PAE2550-A) according to the manufacturer specifications. The results were expressed in photons per sec. GraphPad Prism software was used to graph and analyze the data. Luciferase activities were plotted as a function of Ab concentration to establish dose-response curves. A non-linear regression was applied to the numbers to fit the curve and calculate IC50s.

[3] = target: T1, FZD8 (Homo sapiens, UniProt Q9H461, H70A/Q71E); test: Epitope mapping by FACS on FZD8 Fri domain variants on HEK293 cells; assay type: binding; conditions: residues 70-71 changed from HQ to AE
T1 construct: N-terminus of the Fri domain of FZD8 in turn fused to the transmembrane domain and intracellular domain of CD4 protein; expressed in transfected cells; host or cells: HEK293
T1 sequence (Q9H461 28-158 H70A/Q71E): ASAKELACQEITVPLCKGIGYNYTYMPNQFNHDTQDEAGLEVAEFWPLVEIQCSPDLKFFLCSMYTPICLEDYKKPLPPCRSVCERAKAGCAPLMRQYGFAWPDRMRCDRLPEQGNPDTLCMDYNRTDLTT
Protocol: (§1) To identify the FZD epitope recognized by the 18R8 IgG antibody, epitope mapping was performed. Flow cytometry analysis of cell surface expressed FZD was utilized to measure antibody binding. Mammalian expression plasmid vectors comprising a CMV promoter upstream of polynucleotides that encode an N-terminal signal sequence FLAG epitope tag fused to the N-terminus of the Fri domain of FZD8 in turn fused to the transmembrane domain and intracellular domain of CD4 protein were generated by standard recombinant technology. This expression construct allows expression of the FZD8 Fri domain on the cell surface, as well as expression of a FLAG epitope tag to monitor expression. Site-direct mutagenesis was then used to modify selected amino acids within the extracellular domain of FZD. HEK293 cells were co-transfected with expression vectors encoding the FZD and the transfection marker GFP. Forty-eight hours post-transfection, cells were collected in suspension and incubated on ice with anti-FZD antibody or control IgG to detect background antibody binding. The cells were washed and primary antibodies detected with anti-antibody secondary antibodies conjugated to a fluorescent chromophore. Labeled cells were then analyzed by flow cytometry to measure the binding of anti-FZD antibody to cell surface FZD.
(§2) Epitope mapping for the anti-FZD antibody 44R24 was performed in a manner similar to that described above in Example 5 for the antibodies 18R8 and 18R5. The ability of 44R24 to bind to a similar epitope as 18R8 was assessed by flow cytometry using a series of amino acid variants of FZD8 previously shown to disrupt binding of 18R8 (see Example 5 and FIGS. 6 and 7).

[4] = target: T2, FZD8 (Homo sapiens, UniProt Q9H461, E68Q/V69L); test: as above; assay type: binding; conditions: amino acids 68-69 mutated from EV to QL
T2 construct: N-terminus of the Fri domain of FZD8 in turn fused to the transmembrane domain and intracellular domain of CD4 protein; expressed in transfected cells; host or cells: HEK293
T2 sequence (Q9H461 28-158 E68Q/V69L): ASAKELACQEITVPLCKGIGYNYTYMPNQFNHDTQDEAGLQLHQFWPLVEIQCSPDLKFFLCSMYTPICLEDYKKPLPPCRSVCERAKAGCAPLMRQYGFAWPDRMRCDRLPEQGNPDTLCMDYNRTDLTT
Protocol: as §1, §2

[5] = target: T3, FZD8 (Homo sapiens, UniProt Q9H461, G66A/L67A); test: as above; assay type: binding; conditions: amino acids 66-67 mutated from GL to AA
T3 construct: N-terminus of the Fri domain of FZD8 in turn fused to the transmembrane domain and intracellular domain of CD4 protein; expressed in transfected cells; host or cells: HEK293
T3 sequence (Q9H461 28-158 G66A/L67A): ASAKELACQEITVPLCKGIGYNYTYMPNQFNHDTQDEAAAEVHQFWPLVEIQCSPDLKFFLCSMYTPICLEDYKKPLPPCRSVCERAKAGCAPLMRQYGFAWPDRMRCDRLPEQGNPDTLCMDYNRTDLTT
Protocol: as §1, §2

Molecule	inhibition of basal level of axin2 gene expression [1]	IC50 [2]	binding to FZD8 variant [3]	binding to FZD8 variant [4]	binding to FZD8 variant [5]	IC50 relative to 18R5's [2]
18R5: human anti-FZD antibody; VH SEQ ID NO:10 (as 18R8), VL SEQ ID NO:14; binds FZD1, 2, 5, 7, 8 (antibody, V domains shown, 18R5/18R8 heavy chain variable region (VH); 18R5 light chain variable region (VL)) VH: EVQLVESGGGLVQPGGSLRLSCAASGFTFSHYTLSWVRQAPGKGLEWVSVISGDGSYTYYADSVKGRFTISSDNSKNTLYLQMNSLRAEDTAVYYCARNFIKYVFANWGQGTLVTVSS VL: DIELTQPPSVSVAPGQTARISCSGDNIGSFYVHWYQQKPGQAPVLVIYDKSNRPSGIPERFSGSNSGNTATLTISGTQAEDEADYYCQSYANTLSLVFGGGTKLTVLG	inhibit Axin2 basal levels	0.00273 µM	reduced staining	reduced staining	reduced staining	
18R8: human anti-FZD antibody from phage display; VH SEQ ID NO:10, VL SEQ ID NO:12; binds FZD1, 2, 5, 7, 8 (antibody, V domains shown, 18R5/18R8 heavy chain variable region (VH); 18R8 light chain variable region (VL)) VH: EVQLVESGGGLVQPGGSLRLSCAASGFTFSHYTLSWVRQAPGKGLEWVSVISGDGSYTYYADSVKGRFTISSDNSKNTLYLQMNSLRAEDTAVYYCARNFIKYVFANWGQGTLVTVSS VL: DIELTQPPSVSVAPGQTARISCSGDKLGKKYASWYQQKPGQAPVLVIYEKDNRPSGIPERFSGSNSGNTATLTISGTQAEDEADYYCSSFAGNSLEVFGGGTKLTVLG			clearly diminished	similarly lost	similarly lost	
44R24: anti-FZD5/8 IgG antibody, VH SEQ ID NO:85, VL SEQ ID NO:86; ATCC deposit no. PTA-10311 (antibody, V domains shown, 44R24 VH; 44R24 VL, ATCC deposit no; PTA-10311) VH: EVQLVESGGGLVQPGGSLRLSCAASGFTFSSYYITWVRQAPGKGLEWVSTISYSSSNTYYADSVKGRFTISRDNSKNTLYLQMNSLRAEDTAVYYCARSIVFDYWGQGTLVTVSS VL: DIELTQPPSVSVAPGQTARISCSGDALGNRYVYWYQQKPGQAPVLVIPSGIPERFSGSNSGNTATLTISGTQAEDEADYYCGSWDTRPYPKYVFGGGTKLTVLG	inhibit Axin2 basal levels	0.0344 µM				13 fold

From US8975044B2, “Polynucleotides encoding for frizzled-binding agents and uses thereof” (OncoMed Pharmaceuticals, Inc., priority 2008, dated 2015)
